Results as given in patent US20230192896A1 (BIOVERATIV THERAPEUTICS, published 2023).

B1: BIIB-9-416 (antibody, V domains shown)
VH: QVQLVQSGAEVKKPGASVKVSCKASGYTFTSYYMHWVRQAPGQGLEWMGIINPSGGSTSYAQKFQGRVTMTRDTSTSTVYMELSSLRSEDTAVYYCAREGPMLDYPTYSNWFDPWGQGTLVTVS
VL: EIVMTQSPATLSLSPGERATLSCRASQSVSSYLAWYQQKPGQAPRLLIYDSSNRATGIPARFSGSGSGTDFTLTISSLEPEDFAVYYCQQRVVWPPTFGGGTKVEIK
notes: IgG
B2: BIIB-9-615 (antibody, V domains shown)
VH: QVQLVQSGAEVKKPGASVKVSCKASGYTFTSYYMHWVRQAPGQGLEWMGIINPSGGSTSYAQKFQGRVTMTRDTSTSTVYMELSSLRSEDTAVYYCARDSPSSSSYWSLDLWGRGTLVTVSS
VL: EIVLTQSPATLSLSPGERATLSCRASQSVSSYLAWYQQKPGQAPRLLIYDASNRATGIPARFSGSGSGTDFTLTISSLEPEDFAVYYCQQSCHWPWTFGGGTKVEIK
notes: IgG
B3: BIIB-9-471 (antibody, V domains shown)
VH: QVQLQESGPGLVKPSQTLSLTCTVSGGSISSGGYYWSWIRQHPGKGLEWIGYIYYSGSTYYNPSLKSRVTISVDTSKNQFSLKLSSVTAADTAVYYCARSGVSGSGSDNWFDPWGQGTTVTVSS
VL: EIVLTQSPATLSLSPGERATLSCRASQSVSRYLAWYQQKPGQAPRLLIYDASNRATGIPARFSGSGSGTDFTLTISSLEPEDFAVYYCQQDYNYPFTFGGGTKVEIK
notes: IgG
B4: BIIB-9-473 (antibody, V domains shown)
VH: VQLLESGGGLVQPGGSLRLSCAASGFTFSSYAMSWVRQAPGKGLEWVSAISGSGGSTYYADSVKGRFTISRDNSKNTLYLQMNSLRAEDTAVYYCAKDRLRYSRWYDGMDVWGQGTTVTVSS
VL: EIVLTQSPATLSLSPGERATLSCRASQSVSSYLAWYQQKPGQAPRLLIYDASNRATGIPARFSGSGSGTDFTLTISSLEPEDFAVYYCQQRSFLPYTFGGGTKVEIK
notes: IgG
B5: BIIB-9-565 (antibody, V domains shown)
VH: QLQLQESGPGLVKPSETLSLTCTVSGGSISSSSYYWGWIRQPPGKGLEWIGSIYYSGSTYYNPSLKSRVTISVDTSKNQFSLKLSSVTAADTAVYYCARAGMYSSYANWFDPWGQGTLVTVSS
VL: EIVLTQSPATLSLSPGERATLSCRASQSVSSYLAWYQQKPGQAPRLLIYDASNRATGIPARFSGSGSGTDFTLTISSLEPEDFAVYYCQQDSNLPFTFGGGTKVEIK
notes: IgG
B6: BIIB-9-885 (antibody, V domains shown)
VH: QVQLVQSGAEVKKPGASVKVSCKASGYTFTSYYMHWVRQAPGQGLEWMGIINPSGGSTSYAQKFQGRVTMTRDTSTSTVYMELSSLRSEDTAVYYCAREGPMLDYPTYSNWFDPWGQGTLVTVSS
VL: EIVLTQSPATLSLSPGERATLSCRASQSVSSYLAWYQQKPGQAPRLLIYDASKRATGIPARFSGSGSGTDFTLTISSLEPEDFAVYYCQQRVIWPPTFGGGTKVEIK
notes: IgG
B7: BIIB-9-1280 (antibody, V domains shown)
VH: QVQLVQSGAEVKKPGASVKVSCKASGYTFTSYYMVWVRQAPGQGLEWMGIINPSGGSTSYAQKFQGRVTMTRDTSTSTVYMELSSLRSEDTAVYYCARGPWYSYYYMDVWGKGTTVTVSS
VL: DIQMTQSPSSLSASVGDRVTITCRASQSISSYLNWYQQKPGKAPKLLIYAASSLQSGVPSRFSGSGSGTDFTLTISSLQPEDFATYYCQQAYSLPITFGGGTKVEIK
notes: IgG
B8: BIIB-9-1266 (antibody, V domains shown)
VH: QVQLVQSGAEVKKPGASVKVSCKASGYTFTSYYMHWVRQAPGQGLEWMGIINPSGGSTSYAQKFQGRVTMTRDTSTSTVYMELSSLRSEDTAVYYCARDHGWAIYGMDVWGQGTTVTVSS
VL: EIVMTQSPATLSLSPGERATLSCRASQSVSSYLAWYQQKPGQAPRLLIYDSSNRATGIPARFSGSGSGTDFTLTISSLEPEDFAVYYCQQRLNFPFTFGGGTKVEIK
notes: IgG
B9: BIIB-9-439 (antibody, V domains shown)
VH: QVQLVQSGAEVKKPGASVKVSCKASGYTFTSYYMHWVRQAPGQGLEWMGIINPSGGSTTYAQKFQGRVTMTRDTSTSTVYMELSSLRSEDTAVYYCAREATESYYYMDVWGKGTTVTVSS
VL: EIVMTQSPATLSLSPGERATLSCRASQSVSSYLAWYQQKPGQAPRLLIYDSSNRATGIPARFSGSGSGTDFTLTISSLEPEDFAVYYCQQRDNWPFTFGGGTKVEIK
notes: IgG
B10: BIIB-9-629 (antibody, V domains shown)
VH: QVQLVQSGAEVKKPGASVKVSCKASGYTFTSYYMHWVRQAPGQGLEWMGVINPSGGSTSYAQKFQGRVTMTRDTSTSTVYMELSSLRSEDTAVYYCARDPSQDYATGTGWFDPWGQGTLVTVSS
VL: DIQLTQSPSSLSASVGDRVTITCQASQDISNYLNWYQQKPGKAPKLLIYDASNLETGVPSRFSGSGSGTDFTFTISSLQPEDIATYYCQQLDSLPPTFGGGTKVEIK
notes: IgG
B11: BIIB-9-451 (antibody, V domains shown)
VH: QLQLQESGPGLVKPSETLSLTCTVSGGSISSSSYYWGWIRQPPGKGLEWIGSISYSGSTYYNPSLKSRVTISVDTSKNQFSLKLSSVTAADTAVYYCARDSGGYYYQGFDYWGQGTLVTVSS
VL: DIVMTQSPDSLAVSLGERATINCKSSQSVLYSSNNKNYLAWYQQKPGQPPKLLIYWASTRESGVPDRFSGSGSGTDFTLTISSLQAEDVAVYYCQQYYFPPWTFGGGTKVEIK
notes: IgG
B12: BIIB-9-882 (antibody, V domains shown)
VH: QVQLVQSGAEVKKPGASVKVSCKASGYTFTSYYMHWVRQAPGQGLEWMGIINPSGGSTSYAQKFQGRVTMTRDTSTSTVYMELSSLRSEDTAVYYCARGPTDSSGYLDMDVWGKGTTVTVSS
VL: EIVMTQSPATLSVSPGERATLSCRASQSVSSNLAWYQQKPGQAPRLLIFGASTRATGIPARFSGSGSGTEFTLTISSLQSEDFAVYYCQQHDNFPPTFGGGTKVEIK
notes: IgG
B13: BIIB-9-888 (antibody, V domains shown)
VH: QVQLVQSGAEVKKPGASVKVSCKASGYTFTSYYMHWVRQAPGQGLEWMGIINPSGGSTSYAQKFQGRVTMTRDTSTSTVYMELSSLRSEDTAVYYCARGPTDSSGYLDMDVWGKGTTVTVSS
VL: EIVMTQSPATLSVSPGERATLSCRASQSVSSNLAWYQQKPGQAPRLLIYGASTRATGIPARFSGSGSGTEFTLTISSLQPEDFAVYYCQQAFNWPPTFGGGTKVEIK
notes: IgG
B14: BIIB-9-446 (antibody, V domains shown)
VH: QVQLVQSGAEVKKPGSSVKVSCKASGGTFSSYAISWVRQAPGQGLEWMGGIIPIFGTASYAQKFQGRVTITADESTSTAYMELSSLRSEDTAVYYCARGLEVGYYGYFDYWGQGTLVTVSS
VL: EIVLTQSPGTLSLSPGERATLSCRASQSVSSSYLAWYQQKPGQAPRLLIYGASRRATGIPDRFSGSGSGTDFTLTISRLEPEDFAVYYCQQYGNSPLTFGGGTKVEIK
notes: IgG
B15: BIIB-9-408 (antibody, V domains shown)
VH: QVQLVQSGAEVKKPGASVKVSCKASGYTFTSYYMHWVRQAPGQGLEWMGIINPSGGSTTYAQKFQGRVTMTRDTSTSTVYMELSSLRSEDTAVYYCARDPGAYDDWSGYDDYGMDVWGQGTTVTVSS
VL: EIVLTQSPATLSLSPGERATLSCRASQSVSSYLAWYQQKPGQAPRLLIYDASNRATGIPARFSGSGSGTDFTLTISSLEPEDFAVYYCQQAFVWPPITFGGGTKVEIK
notes: IgG
B16: BIIB-9-886 (antibody, V domains shown)
VH: QVQLVQSGAEVKKPGASVKVSCKASGYTFTSYYMHWVRQAPGQGLEWMGIINPSGGSTSYAQKFQGRVTMTRDTSTSTVYMELSSLRSEDTAVYYCARDPAHSYLDAFDIWGQGTMVTVSS
VL: DIQMTQSPSSVSASVGDRVTITCRASQGISSWLAWYQQKPGKAPKLLIYAASSLQSGVPSRFSGSGSGTDFTLTISSLQPEDFATYYCQQASSFPFTFGGGTKVEIK
notes: IgG
B17: BIIB-9-568 (antibody, V domains shown)
VH: QLQLQESGPGLVKPSETLSLTCTVSGGSISSSSYYWGWIRQPPGKGLEWIGSIYYSGSTYYNPSLKSRVTISVDTSKNQFSLKLSSVTAADTAVYYCARDLGYAATYFDLWGRGTLVTVSS
VL: DIQMTQSPSSLSASVGDRVTITCQASQDISNYLNWYQQKPGKAPKLLIYDASNLETGVPSRFSGSGSGTDFTFTISSLQPEDIATYYCQQYDDYLTFGGGTKVEIK
notes: IgG
B18: BIIB-9-628 (antibody, V domains shown)
VH: QVQLVQSGAEVKKPGASVKVSCKASGYTFTSYYMHWVRQAPGQGLEWMGIINPSGGSTSYAQKFQGRVTMTRDTSTSTVYMELSSLRSEDTAVYYCAREPIAYGATLDLWGRGTLVTVSS
VL: EIVLTQSPGTLSLSPGERATLSCRASQSVSSDYLAWYQQKPGQAPRLLIYGASSRATGIPDRFSGSGSGTDFTLTISRLEPEDFAVYYCQQYVVFPFTFGGGTKVEIK
notes: IgG
B19: BIIB-9-573 (antibody, V domains shown)
VH: QLQLQESGPGLVKPSETLSLTCTVSGGSISSSSYYWGWIRQPPGKGLEWIGSIYYSGSTYYNPSLKSRVTISVDTSKNQFSLKLSSVTAADTAVYYCARESKTKGYLDLWGRGTLVTVSS
VL: EIVLTQSPGTLSLSPGERATLSCRASQSVSSSFLAWYQQKPGQAPRLLIYGASSRATGIPDRFSGSGSGTDFTLTISRLEPEDFAVYYCQQSHSPPYTFGGGTKVEIK
notes: IgG
B20: BIIB-9-884 (antibody, V domains shown)
VH: QLQLQESGPGLVKPSETLSLTCTVSGGSISSSDYYWGWIRQPPGKGLEWIGSIYYSGSTYYNPSLKSRVTISVDTSKNQFSLKLSSVTAADTAVYYCARSPRHKVRGPNWFDPWGQGTLVTVSS
VL: EIVLTQSPGTLSLSPGERATLSCRASQSVSSSYLAWYQQKPGQAPRLLIYGASSRATGIPDRFSGSGSGTDFTLTISRLEPEDFAVYYCQQYHLLPPTFGGGTKVEIK
notes: IgG
B21: BIIB-9-607 (antibody, V domains shown)
VH: QLQLQESGPGLVKPSETLSLTCTVSGGSISSSSYYWGWIRQPPGKGLEWIGSISYSGSTYYNPSLKSRVTISVDTSKNQFSLKLSSVTAADTAVYYCARDRGYSYEDFDLWGRGTLVTVS
VL: DIQMTQSPSTLSASVGDRVTITCRASQSISSWLAWYQQKPGKAPKLLIYKASSLESGVPSRFSGSGSGTEFTLTISSLQPDDFATYYCQQAGRYPLTFGGGTKVEIK
notes: IgG
B22: BIIB-9-472 (antibody, V domains shown)
VH: EVQLVESGGGLVKPGGSLRLSCAASGFTFSSYSMNWVRQAPGKGLEWVSSISSSSSYIYYADSVKGRFTISRDNAKNSLYLQMNSLRAEDTAVYYCARGGRYSGSWSWNIWGQGTMVTVSS
VL: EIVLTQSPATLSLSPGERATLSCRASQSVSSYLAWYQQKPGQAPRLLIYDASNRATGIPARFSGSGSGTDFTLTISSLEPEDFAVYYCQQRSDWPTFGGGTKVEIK
notes: IgG

Assays:
[1] = molecular target: T1, free FIXa (activated Factor IX) (human, UniProt P00740 47-191; P00740 227-461); test: BLI; class meaning: paragraph 914
T1 construct: BLI antigen bought from Haematologic Technologies (HCIXA-0050); also called factor IXa

[2] = molecular target: T2, FIXa-SM (FIXa+EGR-CMK) (human, UniProt P00740 47-191; P00740 227-461, EGR-CMK (L-Glu-Gly-Arg chloromethyl ketone) covalently bound to the active site); test: BLI; class meaning: paragraph 914
T2 construct: BLI antigen bought from Haematologic Technologies (HCIXA-EGR); also called FIXa with substrate mimic

Binder	binding result [1]	binding result [2]
B1	binds	
B2	binds	binds
B3	binds	binds
B4		binds
B5		binds
B6	binds	
B7	binds	binds
B8	binds	binds
B9	binds	binds
B10	binds	
B11		binds
B12	binds	binds
B13	binds	binds
B14	binds	binds
B15	binds	
B16	binds	binds
B17	binds	binds
B18	binds	binds
B19		binds
B20	binds	binds
B21	binds	binds
B22	binds	binds
